Residue numbers refer to the chain shown, from its start. One block for each binder: values may come before it.
Key:
human ALPP on CHO cells [1] = target: T1, human ALPP on CHO cells (human, UniProt P05187 23-506); assay: flow cytometry, CHO cells, KDapp
T1 construct: whole, on cells; also called CHO-ALPP
Protocol: (§1) Cell surface binding of test agents to hALPP isoforms was characterized in four CHO-ALPP isoform stably transfected cell lines (CHO-ALPP, CHO-ALPPL2, CHO-ALPI and CHO-ALPL) and the resulting KDapp values determined. Adherent cells were detached from tissue culture flasks by incubating with 0.1% EDTA/PBS solution at 37° C. for ~10 minutes or until cells detached easily. Cells were re-suspended in ice-cold PBS/2% FCS in 15 ml tubes and centrifuged at 1700 rpm for 5 mins at 4° C. Supernatant was removed and the cell pellet re-suspended in PBS/2% FCS. […] Cells were incubated with 100 μl of test agents at a range of concentrations, plus controls for 1 hr on ice. The sample plate was centrifuged at 1700 rpm for 5 mins at 4° C. The supernatant was removed, and a wash performed by re-suspending the cell pellets in 0.25 mL of ice-cold PBS/2% FCS using a multichannel pipette. Samples were again centrifuged at 1700 rpm for 5 min at 4° C. Supernatant was removed and two further washes performed as described. After the final wash and centrifugation step, excess liquid was removed by blotting the plate on tissue paper. Binding of VHH (His6 tagged) agents was determined by adding 100 μl of anti-x6His tag Ab (Abcam) per cell pellet sample as appropriate and incubating on ice for 30 mins. Wash steps were performed as described previously. Fitc-anti-mouse antibody (ThermoFisher) was used to detect binding of the VHH (His6 tagged) agents by incubating with the appropriate samples for 30 min on ice in the dark. Wash steps were performed as described previously. All cell pellets were finally re-suspended in […] of ice-cold PBS/2% FCS and left on ice in the dark prior to analysis on a Merck-Millipore Guava EasyCyte HT or Thermo Fisher Attune N×T flow cytometer.

[2] = target: T2, human ALPPL2 on CHO cells (human, UniProt P10696 20-503); assay: flow cytometry, CHO cells, KDapp
T2 construct: whole, on cells; also called CHO-ALPPL2
T2 sequence (P10696 20-503): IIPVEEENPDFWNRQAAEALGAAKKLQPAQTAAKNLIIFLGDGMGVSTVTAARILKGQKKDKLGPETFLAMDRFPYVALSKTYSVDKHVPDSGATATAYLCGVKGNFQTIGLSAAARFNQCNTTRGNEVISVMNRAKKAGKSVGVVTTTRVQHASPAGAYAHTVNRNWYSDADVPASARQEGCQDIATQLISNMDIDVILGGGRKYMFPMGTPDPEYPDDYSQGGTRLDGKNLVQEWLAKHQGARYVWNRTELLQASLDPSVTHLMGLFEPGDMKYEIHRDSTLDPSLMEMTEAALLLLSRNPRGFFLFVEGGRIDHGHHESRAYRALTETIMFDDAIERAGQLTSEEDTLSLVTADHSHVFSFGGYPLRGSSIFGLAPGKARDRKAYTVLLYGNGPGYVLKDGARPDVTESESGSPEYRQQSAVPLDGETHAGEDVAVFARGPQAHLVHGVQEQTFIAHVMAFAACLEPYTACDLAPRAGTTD
Protocol: as §1

human ALPL on CHO cells = target: T3, human ALPL on CHO cells (human, UniProt P05186 18-501); assay: flow cytometry, CHO cells stably expressing human ALPL; His6-tagged VHH detected with anti-His tag Ab and FITC anti-mouse Ab
T3 construct: whole, on cells; also called CHO-ALPL
T3 sequence (looked up): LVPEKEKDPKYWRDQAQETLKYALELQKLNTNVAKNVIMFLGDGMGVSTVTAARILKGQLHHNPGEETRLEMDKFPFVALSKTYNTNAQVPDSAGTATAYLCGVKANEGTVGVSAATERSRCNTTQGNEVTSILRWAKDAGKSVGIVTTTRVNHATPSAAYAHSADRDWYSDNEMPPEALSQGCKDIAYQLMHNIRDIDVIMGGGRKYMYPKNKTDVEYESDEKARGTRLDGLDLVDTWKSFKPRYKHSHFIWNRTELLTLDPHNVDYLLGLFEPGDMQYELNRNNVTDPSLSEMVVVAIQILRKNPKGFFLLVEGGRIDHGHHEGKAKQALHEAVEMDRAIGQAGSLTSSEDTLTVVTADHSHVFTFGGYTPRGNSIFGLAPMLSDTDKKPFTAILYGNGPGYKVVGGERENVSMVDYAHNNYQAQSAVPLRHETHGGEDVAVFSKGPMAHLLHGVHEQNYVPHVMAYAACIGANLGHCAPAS
Protocol: (§2) C-terminal His tagged VHH proteins were assessed for ALPP, ALPPL2, ALPI and ALPL cell-surface binding by flow cytometry. Binders encompassing different epitope bins were screened on CHO cells stably expressing ALPP, ALPPL2, ALPI or ALPL. High levels of cell-surface proteins expression were confirmed for each of the cell-lines by flow cytometry.
as §1

human ALPP on CHO cells [3] = target: T1, human ALPP on CHO cells; assay: flow cytometry, CHO cells, 350 nM
Protocol: as §1

human ALPI on CHO cells [4] = target: T4, human ALPI on CHO cells (human, UniProt P09923 20-503); assay: flow cytometry, CHO cells, 350 nM
T4 construct: whole, on cells; also called CHO-ALPI
T4 sequence (looked up): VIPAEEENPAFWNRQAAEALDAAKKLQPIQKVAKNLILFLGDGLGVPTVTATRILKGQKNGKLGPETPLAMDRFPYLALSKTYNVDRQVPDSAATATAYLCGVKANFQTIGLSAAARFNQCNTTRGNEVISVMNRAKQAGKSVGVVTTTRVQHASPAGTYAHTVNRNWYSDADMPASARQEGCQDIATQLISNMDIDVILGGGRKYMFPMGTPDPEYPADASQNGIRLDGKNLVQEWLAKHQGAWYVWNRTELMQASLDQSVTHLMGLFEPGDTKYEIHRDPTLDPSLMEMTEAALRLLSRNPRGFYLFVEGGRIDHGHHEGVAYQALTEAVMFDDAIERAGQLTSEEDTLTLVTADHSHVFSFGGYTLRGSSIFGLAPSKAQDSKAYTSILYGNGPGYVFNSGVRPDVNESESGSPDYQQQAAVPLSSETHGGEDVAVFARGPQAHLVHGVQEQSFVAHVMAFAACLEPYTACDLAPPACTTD
Protocol: as §1

human ALPI on CHO cells [5] = target: T4, human ALPI on CHO cells; assay: flow cytometry, CHO cells stably expressing human ALPI; His6-tagged VHH detected with anti-His tag Ab and FITC anti-mouse Ab
Protocol: as §2, §1

T1 sequence (P05187 23-506): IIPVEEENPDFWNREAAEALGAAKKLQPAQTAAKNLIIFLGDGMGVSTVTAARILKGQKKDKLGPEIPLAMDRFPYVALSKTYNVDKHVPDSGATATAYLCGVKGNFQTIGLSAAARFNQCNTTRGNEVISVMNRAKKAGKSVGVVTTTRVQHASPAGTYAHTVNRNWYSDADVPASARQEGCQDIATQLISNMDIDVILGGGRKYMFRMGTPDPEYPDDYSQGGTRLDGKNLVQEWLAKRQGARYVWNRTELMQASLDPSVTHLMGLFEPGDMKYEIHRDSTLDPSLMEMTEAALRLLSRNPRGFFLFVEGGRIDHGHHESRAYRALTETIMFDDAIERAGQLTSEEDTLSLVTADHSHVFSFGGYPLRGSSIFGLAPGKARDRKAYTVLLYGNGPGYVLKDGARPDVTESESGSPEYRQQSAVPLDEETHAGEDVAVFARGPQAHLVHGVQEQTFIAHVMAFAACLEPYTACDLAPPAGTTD

B1: F08 His (VHH, not shown: small tags and cut ends)
VHH: QVQLVESGGGSVQAGGSLRLSCAASGPSLSNYAMGWFRQAPGKEREFVAGISWGGGRTSYTDSVKGRFTISRDNAKNTVYLQMNNLKPEDTGVYYCAGRYGRGRNVEYEYDYWGQGTQVTVSS
notes: also called #269
Kd (human ALPP on CHO cells [1]): 5 nM
Kd [2]: 3.3 nM
binding result (human ALPL on CHO cells): no binding (tested: 350 nM)
MFI (human ALPP on CHO cells [3]): 7370 MFI
MFI (human ALPI on CHO cells [4]): 99 MFI
fold lower MFI for ALPI binding versus ALPP (human ALPI on CHO cells [4]): 75 fold

B3: C07 His (VHH, not shown: small tags and cut ends)
VHH: QVQLVESGGGLVQAGESLRLACAASGTIFSGNAVGWYRQAPEKQREWVSSITDYGDTDYAEAVKGRFTISRDNAKNTVYLQMNSLKPEDTAVYYCYVYQRGESEEYWGQGTQVTVSS
notes: also called #258
Kd (human ALPP on CHO cells [1]): 3.5 nM
Kd [2]: 5.1 nM
binding result (human ALPL on CHO cells): no binding (tested: 350 nM)
binding result (human ALPI on CHO cells [5]): no binding (tested: 350 nM)

B4: D10 His (VHH, not shown: small tags and cut ends)
VHH: QVQLVESGGGLVQPGGSLRLSCAASGSIFSVNTMGWYRQAPGKQRDLVAVATSGGTIHYADSVKGRFTISRDNAKNTVYLQMNSLKPEDTAVYYCNLVVPYGMIAGDHDYWGQGTKVTVSS
Kd (human ALPP on CHO cells [1]): 3.4 nM
binding result (human ALPL on CHO cells): no binding (tested: 350 nM)
binding result (human ALPI on CHO cells [5]): no binding (tested: 350 nM)

B8: E10 His (VHH, not shown: small tags and cut ends)
VHH: QVQLVESGGGLVQAGGSLRLSCAVSGRALSDYNIGWFRQAPGKEREFVARKTWDGSSTRYDDSVKGRFTVSIEDAKNTAYLQMSSLKTEDTAVYYCAAGRYSRARGWEYDYWGQGTQVTVSS
notes: also called #265
Kd (human ALPP on CHO cells [1]): 3.5 nM
Kd [2]: 3.8 nM
binding result (human ALPL on CHO cells): no binding (tested: 350 nM)
binding result (human ALPI on CHO cells [5]): no binding (tested: 350 nM)

B9: F05 His (VHH, not shown: small tags and cut ends)
VHH: B8 VHH with V24A, L29F, S30G, K51R, E73D, D74N, S84N, A104V
Kd (human ALPP on CHO cells [1]): 2.3 nM
Kd [2]: 1.8 nM
binding result (human ALPL on CHO cells): no binding (tested: 350 nM)
binding result (human ALPI on CHO cells [5]): no binding (tested: 350 nM)

Continued by falling Kd (human ALPP on CHO cells [1]), values first:

Kd (human ALPP on CHO cells [1]): 42.4 nM
Kd [2]: 28.3 nM
binding result (human ALPL on CHO cells): no binding (tested: 350 nM)
binding result (human ALPI on CHO cells [5]): no binding (tested: 350 nM)
B7: A06 His (VHH, not shown: small tags and cut ends)
VHH: QVHLVESGGGLVQAGGSLRLSCAASGRTFLSMGWFRQAPGKEREFVAAISWTGGSTGYADSVKGRFTISRESDKETMYLQMNSLKPEDTAVYYCAARGDVYYGGDDATRYKYWGQGTQVTVSS
notes: also called #250

Kd (human ALPP on CHO cells [1]): 4.6 nM
Kd [2]: 4.9 nM
binding result (human ALPL on CHO cells): no binding (tested: 350 nM)
binding result (human ALPI on CHO cells [5]): no binding (tested: 350 nM)
B6: E06 His (VHH, not shown: small tags and cut ends)
VHH: QVHLVESGGGLVQAGGSLRLSCAASRRSFSEYAMGWFRQAPGKEREFVAAIGWSGVIEYADSVKGRFTISRDNAKDTVYLQMNSLKPEDTAVYYCAAGLGIRVVSQTPAYWGQGTQVTVSS

Kd (human ALPP on CHO cells [1]): 4.2 nM
Kd [2]: 19.5 nM
binding result (human ALPL on CHO cells): no binding (tested: 350 nM)
MFI (human ALPP on CHO cells [3]): 6650 MFI
MFI (human ALPI on CHO cells [4]): 629 MFI
B2: D04 His (VHH, not shown: small tags and cut ends)
VHH: QVQLVESGGGLVQPGGSLRLSCAASESTFSINVMGWYRQAPGKQRELVATITSGDITNYADSVKGRFTISRDNAENTVYLRTNSLKPEDTAVYYCNARGEYHSGNEYDYWGQGTQVTVSS

Kd (human ALPP on CHO cells [1]): 3.8 nM
Kd [2]: 6 nM
binding result (human ALPL on CHO cells): no binding (tested: 350 nM)
binding result (human ALPI on CHO cells [5]): no binding (tested: 350 nM)
B5: A05 His (VHH, not shown: small tags and cut ends)
VHH: QVQLVESGGGLVQAGASLTLSCAASGFTFNTRSIVWFRQAPGKEREAVSCISKVAGSTYYGDSVQGRFSSSTDNAKNTVSLQMNSLKPEDTAVYTCAASFAPNCYGWSVAANMEYWGEGTMVTVSS
notes: also called #249
